± gives the standard deviation of the averaged measurements.
Key:
MCF7 = assay: percentage of EdU-negative (G0-arrested) nuclei per well, 72 h; higher = more G0 arrest; conditions: reference: sequence is the full UniProt precursor, the tested protein was the secreted form or ectodomain
hTERT-HMEC = assay: as above; conditions: reference: sequence is the full UniProt precursor, the tested protein was the secreted form or ectodomain
[1] = protein concentration 0.02025 µM
[2] = protein concentration 0.2025 µM
[3] = protein concentration 0.0225 µM
[4] = protein concentration 0.028295 µM
[5] = protein concentration 0.28295 µM
[6] = protein concentration 0.03125 µM
[7] = protein concentration 0.3125 µM
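Further: secreted proteins added to cultured cells, EdU pulse at the end, nuclei found by Hoechst imaging, EdU status from nuclear versus surrounding ring intensity ratio, PBS as neutral control.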

| Sequence | percentage of EdU-negative (MCF7; [3]) [%] | percentage of EdU-negative (MCF7; protein concentration 0.225 µM) [%] | percentage of EdU-negative (hTERT-HMEC; [3]) [%] | percentage of EdU-negative (hTERT-HMEC; protein concentration 0.225 µM) [%] | further results |
| --- | --- | --- | --- | --- | --- |
| MKPATGLWVWVSLLVAAGTVQPSDSQSVCAGTENKLSSLSDLEQQYRALRKYYENCEVVMGNLEITSIEHNRDLSFLRSVREVTGYVLVALNQFRYLPLENLRIIRGTKLYEDRYALAIFLNYRKDGNFGLQELGLKNLTEILNGGVYVDQNKFLCYADTIHWQDIVRNPWPSNLTLVSTNGSSGCGRCHKSCTGRCWGPTENHCQTLTRTVCAEQCDGRCYGPYVSDCCHRECAGGCSGPKDTDCFACMNFNDSGACVTQCPQTFVYNPTTFQLEHNFNAKYTYGAFCVKKCPHNFVVDSSSCVRACPSSKMEVEENGIKMCKPCTDICPKACDGIGTGSLMSAQTVDSSNIDKFINCTKINGNLIFLVTGIHGDPYNAIEAIDPEKLNVFRTVREITGFLNIQSWPPNMTDFSVFSNLVTIGGRVLYSGLSLLILKQQGITSLQFQSLKEISAGNIYITDNSNLCYYHTINWTTLFSTINQRIVIRDNRKAENCTAEGMVCNHLCSSDGCWGPGPDQCLSCRRFSRGRICIESCNLYDGEFREFENGSICVECDPQCEKMEDGLLTCHGPGPDNCTKCSHFKDGPNCVEKCPDGLQGANSFIFKYADPDRECHPCHPNCTQGCNGPTSHDCIYYPWTGHSTLPQHARTPLIAAGVIGGLFILVIVGLTFAVYVRRKSIKKKRALRRFLETELVEPLTPSGTAPNQAQLRILKETELKRVKVLGSGAFGTVYKGIWVPEGETVKIPVAIKILNETTGPKANVEFMDEALIMASMDHPHLVRLLGVCLSPTIQLVTQLMPHGCLLEYVHEHKDNIGSQLLLNWCVQIAKGMMYLEERRLVHRDLAARNVLVKSPNHVKITDFGLARLLEGDEKEYNADGGKMPIKWMALECIHYRKFTHQSDVWSYGVTIWELMTFGGKPYDGIPTREIPDLLEKGERLPQPPICTIDVYMVMVKCWMIDADSRPKFKELAAEFSRMARDPQRYLVIQGDDRMKLPSPNDSKFFQNLLDEEDLEDMMDAEEYLVPQAFNIPPPIYTSRARIDSNRSEIGHSPPPAYTPMSGNQFVYRDGGFAAEQGVSVPYRAPTSTIPEAPVAQGATAEIFDDSCCNGTLRKPVAPHVQEDSSTQRYSADPTVFAPERSPRGELDEEGYMTPMRDKPKQEYLNPVEENPFVSRRKNGDLQALDNPEYHNASNGPPKAEDEYVNEPLYLNTFANTLGKAEYLKNNILSMPEKAKKAFDNPDYWNHSLPPRSTLQHPDYLQEYSTKYFYKQNGRIRPIVAENPEYLSEFSLKPGTVLPPPPYRHRNTVV |  |  |  |  | percentage of EdU-negative (MCF7; [1]): 26.2 ± 1.2%; percentage of EdU-negative (MCF7; [2]): 25.4 ± 1.2%; percentage of EdU-negative (hTERT-HMEC; [1]): 4.75 ± 0.55%; percentage of EdU-negative (hTERT-HMEC; [2]): 7.8 ± 0.72% |
| MIFPWKCQSTQRDLWNIFKLWGWTMLCCDFLAHHGTDCWTYHYSEKPMNWQRARRFCRDNYTDLVAIQNKAEIEYLEKTLPFSRSYYWIGIRKIGGIWTWVGTNKSLTEEAENWGDGEPNNKKNKEDCVEIYIKRNKDAGKWNDDACHKLKAALCYTASCQPWSCSGHGECVEIINNYTCNCDVGYYGPQCQFVIQCEPLEAPELGTMDCTHPLGNFSFSSQCAFSCSEGTNLTGIEETTCGPFGNWSSPEPTCQVIQCEPLSAPDLGIMNCSHPLASFSFTSACTFICSEGTELIGKKKTICESSGIWSNPSPICQKLDKSFSMIKEGDYNPLFIPVAVMVTAFSGLAFIIWLARRLKKGKKSKRSMNDPY | 24.2 ± 0.78 | 32.8 ± 4 | 4.92 ± 0.1 | 11.1 ± 1.2 |  |
| MQPRTPLVLCVLLSQVLLLTSAEDLDCTPGFQQKVFHINQPAEFIEDQSILNLTFSDCKGNDKLRYEVSSPYFKVNSDGGLVALRNITAVGKTLFVHARTPHAEDMAELVIVGGKDIQGSLQDIFKFARTSPVPRQKRSIVVSPILIPENQRQPFPRDVGKVVDSDRPERSKFRLTGKGVDQEPKGIFRINENTGSVSVTRTLDREVIAVYQLFVETTDVNGKTLEGPVPLEVIVIDQNDNRPIFREGPYIGHVMEGSPTGTTVMRMTAFDADDPATDNALLRYNIRQQTPDKPSPNMFYIDPEKGDIVTVVSPALLDRETLENPKYELIIEAQDMAGLDVGLTGTATATIMIDDKNDHSPKFTKKEFQATVEEGAVGVIVNLTVEDKDDPTTGAWRAAYTIINGNPGQSFEIHTNPQTNEGMLSVVKPLDYEISAFHTLLIKVENEDPLVPDVSYGPSSTATVHITVLDVNEGPVFYPDPMMVTRQEDLSVGSVLLTVNATDPDSLQHQTIRYSVYKDPAGWLNINPINGTVDTTAVLDRESPFVDNSVYTALFLAIDSGNPPATGTGTLLITLEDVNDNAPFIYPTVAEVCDDAKNLSVVILGASDKDLHPNTDPFKFEIHKQAVPDKVWKISKINNTHALVSLLQNLNKANYNLPIMVTDSGKPPMTNITDLRVQVCSCRNSKVDCNAAGALRFSLPSVLLLSLFSLACL | 24.7 ± 1.2 | 27.1 ± 0.61 | 4.14 ± 0.25 | 9.2557 ± 0.0081 |  |
| MPVPASWPHLPSPFLLMTLLLGRLTGVAGEDELQVIQPEKSVSVAAGESATLRCAMTSLIPVGPIMWFRGAGAGRELIYNQKEGHFPRVTTVSELTKRNNLDFSISISNITPADAGTYYCVKFRKGSPDDVEFKSGAGTELSVRAKPSAPVVSGPAVRATPEHTVSFTCESHGFSPRDITLKWFKNGNELSDFQTNVDPAGDSVSYSIHSTARVVLTRGDVHSQVICEIAHITLQGDPLRGTANLSEAIRVPPTLEVTQQPMRAENQANVTCQVSNFYPRGLQLTWLENGNVSRTETASTLIENKDGTYNWMSWLLVNTCAHRDDVVLTCQVEHDGQQAVSKSYALEISAHQKEHGSDITHEAALAPTAPLLVALLLGPKLLLVVGVSAIYICWKQKA | 24.1 ± 1.1 | 27 ± 1.5 | 5.34 ± 0.15 | 5.42 ± 0.66 |  |
| MAPPQVLAFGLLLAAATATFAAAQEECVCENYKLAVNCFVNNNRQCQCTSVGAQNTVICSKLAAKCLVMKAEMNGSKLGRRAKPEGALQNNDGLYDPDCDESGLFKAKQCNGTSMCWCVNTAGVRRTDKDTEITCSERVRTYWIIIELKHKAREKPYDSKSLRTALQKEITTRYQLDPKFITSILYENNVITIDLVQNSSQKTQNDVDIADVAYYFEKDVKGESLFHSKKMDLTVNGEQLDLDPGQTLIYYVDEKAPEFSMQGLKAGVIAVIVVVVIAVVAGIVVLVISRKKRMAKYEKAEIKEMGEMHRELNA |  |  |  |  | percentage of EdU-negative (MCF7; [4]): 26.6 ± 1.3%; percentage of EdU-negative (MCF7; [5]): 26.1 ± 0.38%; percentage of EdU-negative (hTERT-HMEC; [4]): 4.24 ± 0.27%; percentage of EdU-negative (hTERT-HMEC; [5]): 7.81 ± 1.4% |
| MARFPKADLAAAGVMLLCHFFTDQFQFADGKPGDQILDWQYGVTQAFPHTEEEVEVDSHAYSHRWKRNLDFLKAVDTNRASVGQDSPEPRSFTDLLLDDGQDNNTQIEEDTDHNYYISRIYGPSDSASRDLWVNIDQMEKDKVKIHGILSNTHRQAARVNLSFDFPFYGHFLREITVATGGFIYTGEVVHRMLTATQYIAPLMANFDPSVSRNSTVRYFDNGTALVVQWDHVHLQDNYNLGSFTFQATLLMDGRIIFGYKEIPVLVTQISSTNHPVKVGLSDAFVVVHRIQQIPNVRRRTIYEYHRVELQMSKITNISAVEMTPLPTCLQFNRCGPCVSSQIGFNCSWCSKLQRCSSGFDRHRQDWVDSGCPEESKEKMCENTEPVETSSRTTTTVGATTTQFRVLTTTRRAVTSQFPTSLPTEDDTKIALHLKDNGASTDDSAAEKKGGTLHAGLIIGILILVLIVATAILVTVYMYHHPTSAASIFFIERRPSRWPAMKFRRGSGHPAYAEVEPVGEKEGFIVSEQC [Q6UX71] | 27.4 ± 2.7 | 26.561 ± 0.011 | 4.63 ± 0.96 | 7.25 ± 1.4 |  |
| MVWKVAVFLSVALGIGAVPIDDPEDGGKHWVVIVAGSNGWYNYRHQADACHAYQIIHRNGIPDEQIVVMMYDDIAYSEDNPTPGIVINRPNGTDVYQGVPKDYTGEDVTPQNFLAVLRGDAEAVKGIGSGKVLKSGPQDHVFIYFTDHGSTGILVFPNEDLHVKDLNETIHYMYKHKMYRKMVFYIEACESGSMMNHLPDNINVYATTAANPRESSYACYYDEKRSTYLGDWYSVNWMEDSDVEDLTKETLHKQYHLVKSHTNTSHVMQYGNKTISTMKVMQFQGMKRKASSPVPLPPVTHLDLTPSPDVPLTIMKRKLMNTNDLEESRQLTEEIQRHLDARHLIEKSVRKIVSLLAASEAEVEQLLSERAPLTGHSCYPEALLHFRTHCFNWHSPTYEYALRHLYVLVNLCEKPYPLHRIKLSMDHVCLGHY |  |  |  |  | percentage of EdU-negative (MCF7; [6]): 26.412 ± 0.015%; percentage of EdU-negative (MCF7; [7]): 26 ± 1.2%; percentage of EdU-negative (hTERT-HMEC; [6]): 5.13 ± 0.28%; percentage of EdU-negative (hTERT-HMEC; [7]): 5.28 ± 0.11% |
| MARMGLAGAAGRWWGLALGLTAFFLPGVHSQVVQVNDSMYGFIGTDVVLHCSFANPLPSVKITQVTWQKSTNGSKQNVAIYNPSMGVSVLAPYRERVEFLRPSFTDGTIRLSRLELEDEGVYICEFATFPTGNRESQLNLTVMAKPTNWIEGTQAVLRAKKGQDDKVLVATCTSANGKPPSVVSWETRLKGEAEYQEIRNPNGTVTVISRYRLVPSREAHQQSLACIVNYHMDRFKESLTLNVQYEPEVTIEGFDGNWYLQRMDVKLTCKADANPPATEYHWTTLNGSLPKGVEAQNRTLFFKGPINYSLAGTYICEATNPIGTRSGQVEVNITEFPYTPSPPEHGRRAGPVPTAIIGGVAGSILLVLIVVGGIVVALRRRRHTFKGDYSTKKHVYGNGYSKAGIPQHHPPMAQNLQYPDDSDDEKKAGPLGGSSYEEEEEEEEGGGGGERKVGGPHPKYDEDAKRPYFTVDEAEARQDGYGDRTLGYQYDPEQLDLAENMVSQNDGSFISKKEWYV | 25.4 ± 4.4 | 23.9 ± 2.4 | 4.56 ± 1.1 | 4.77 ± 0.62 |  |
